Experimental data reported in article PMC5260992.

Biological target: Pin1 (UniProt Q13526)
Test: modified ELISA, plate-coated peptide
Conditions: reference: non-phosphorylated peptide T184; sites T184

binding against the reference: stronger
Substance: ATF1 (activating transcription factor 1) (from UniProt P18846) phosphorylated peptide pT184
